This passage reports Kd and activity (fold repression) results from patent US6903185.

The target of data set [1] is 268//NRE (six-finger fusion, Zif268 fingers - longer linker - NRE fingers) (synthetic) (UniProt P08046). Put plainly: EMSA. The settings on record: room temp. (A gel shift assay detects complexes by their altered migration in electrophoresis.)
For data set [2], the target named is NRE peptide (three-finger Zif268 variant selected by phage display) (synthetic) (UniProt P08046). Nature of the data set: EMSA.
Data set [3] concerns the target NRE peptide (three-finger Zif268 variant) (synthetic) (UniProt P08046). Nature of the data set: cell_activity. Conditions: 293 cells.
For data set [4], the target named is Zif268 and NRE peptides co-expressed as separate chains (synthetic) (UniProt P08046+P08046). Put plainly: cell_activity. Conditions: co-expression of unlinked peptides; 293 cells.
Data set [5] addresses 268//NRE (six-finger fusion, longer linker) (synthetic) (UniProt P08046). Nature of the data set: cell_activity. Conditions: VP16-activated transcription, 293 cells.
Data set [6] deals with 268/NRE (six-finger fusion, shorter linker RQKDGERP) (synthetic) (UniProt P08046). Nature of the data set: cell_activity. Conditions: 293 cells.

Consider “TCTGCAAGGGTTCAGGCGTGGGCGGTAAG (double strand) [N/Z site]”, for which the Kd in data set [1] (calculated from koff/kon, direct titration <1.0 pM, p113 states 3.8 fM) is 0.0037 pM; in data set [2] (room temp), 180 pM.

On to “AAGGGTTCAGGCGTGGGCG (double strand) [N/Z site in luciferase reporter promoter]”, for which the activity (fold repression) in data set [3] stood at 1.8; in data set [4], 8.5; in data set [5], 72; in data set [6], 68.

In the case of “TCTGCAAGGGTTCAGCGTGGGCGGTAAG (double strand) [NZ site]”, the Kd was 0.0021 pM in data set [1] (calculated from koff/kon, direct titration <1.0 pM, pH 7.0, 100 mM NaCl, 5 mM MgCl2, Zn); 60 pM in data set [2] (apparent Kd with 0.1 nM Zif268 prebound to neighboring site); 180 pM in data set [2] (apparent Kd, NRE peptide alone).

Regarding “TCTGCAAGGGTTCAGTGCGTGGGCGGTAAG (double strand) [N//Z site]”, the Kd in data set [1] (calculated from koff/kon, direct titration <1.0 pM) was 0.003 pM.

As to “AAGGGTTCA (double strand) [N site in luciferase reporter promoter]”, the activity (fold repression) in data set [3] turned out to be 1.9.

“TCTGCAAGGGTTCAGGCGACACCAACCAA (double strand) [N site]”: in data set [1], the Kd came to 190 pM.

In data set [1] (exact Kd not determined, smeared band), “GTGTGTGTGTGATCTGCGTGGGCGGTAAG (double strand) [Z site]” came in with a Kd of 10 pM.

Consider “AAGGGTTCAGTGCGTGGGCG (double strand) [N//Z site in luciferase reporter promoter]”, for which the results for the activity (fold repression) in data set [3], in data set [5] and in data set [6] (linker modelled too short for all six fingers to bind) were 2.7, 47 and 22, respectively.
